Two substances from PMC8313286 can be followed below.

For assay [1], the target named is RepA, putative replicase of megaplasmid pMP7017 (Bifidobacterium breve JCM7017 (megaplasmid pMP7017)). As to the kind of experiment: SEC-MALS. (Size exclusion chromatography separates by hydrodynamic size, large species first.)
Assay [2] addresses RepB, replication initiator of megaplasmid pMP7017 (Bifidobacterium breve JCM7017 (megaplasmid pMP7017)). As to the kind of experiment: SEC-MALS.

In assay [1], “RepA, putative replicase of megaplasmid pMP7017 (natural protein)” came in with a percent of total protein in the dimer peak of 67.3%, a percent of total protein in the presumed octamer peak of 15.7% and a percent of total protein in the presumed tetramer peak of 17%.

For “RepB, replication initiator of megaplasmid pMP7017 (natural protein)”, in assay [2], the percent of total sample in the dimer peak was 97% and the stoichiometry N amounted to 2.

The stoichiometry N is a count of units in the complex or per binding partner.
